Source: the NTF2 design screens of Basanta et al. (2020)

Assay: protease stability score; higher = more stable; yeast display proteolysis, trypsin and chymotrypsin;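 note: relative to predicted unfolded state with 0 unfolded-like and 1 meaning tenfold more protease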

“NDLERDAEHMLKLLIEAHLTGNEDIFEEFMDPNTRLVVGDKDNHGREFAEDYFKEWRVKHVRLKHYRSIGNYVEFDTETNVHVNGRDIRTETKITIVKIDGRWLLKVLIFG” gave a protease stability score of 1.72.

“NEDDHIMEELTRIFIQNLRTGNEEEWAKYADPDTRLDFNGVDIIGRESILHWLKHMLTELRFTKIIFHHINAVNGRIHLDVEQHVEVGDKSQTIRSEIHIRVVNGVIKREYYRYK” showed a protease stability score of 0.092.

Work on “NEDDKHAKHLLDLLIRTFITGDEHTLMNLLDPHTRYHQGEKELHGMEMLLHVERHHGATVHHFHVKSVRVIGDKIQFHVHVDHTIDGKRIRTDIDLWMEKVDGRWIVREIRIH” yielded a protease stability score of 0.815.

Work on “NEDEDKMKEWIETLHKSLETGDEKTLSKLFDPRVQYDIGDKKYHGWRHYLELILRIDHERREIHHVEVVNGRVEIDVRVHIHINGQDYEKKTILHVEKIDGKWLNKKVQIV” yielded a protease stability score of 1.16.

“NEDEDWLRKVLHLLLHAAETGDEEILLHLLDPNARFIQGDKFKVGMDILETWIRKIKNLRIHDFELKDMRVYNGRIEVDGHLDRIINGQRERTDIILFLLKVDGRWYFEEIRIS” showed a protease stability score of 2.09.

“NEDEEAHHKLIKEYSRLVDTGDWRSLRRYLDPDYRLRVDGVDIVGRDELHRILEQMLDRVDHLHLNIERHRIQGDFLISDVKHHYEFNGKHVERKVIIYIWKFDGRWIMRYTEVL” showed a protease stability score of 1.02.

In the case of “NEDEEEARRWLEFFIKLYETGDEHMLEKMIDPDTRSYIDGKEFVGREEIRKLLRHLRIEHIHVKRFRAVNGKIDFDTHIVGEFNGRRKNTDVHIRATKIDGQWYLHEVDWK”, the protease stability score is reported as 1.64.

“NEDEEHFKKWFEKYLRSLRTGDEENTRKLFDPHVRIEFENHELHGWENAVRFFRELHHRADVIHLELHDYTIVGDYVYIDVIVHLIYNGREFRHDVKIDASKIDGQWRIESLSIK” showed a protease stability score of 1.64.

Work on “NEDEEIVRERFEEFLDMMFTGDWTSLEKLLDPHYRLDIGDKHHHGREEFIEFVRKIKNLRIDIKRVSVIVIDGRAINHVDGVLHFNGKTEKVHIIVVAKKIDGRWIVERVTIETH” yielded a protease stability score of 2.08.

In the case of “NEDEEIWRKAHEFMIHAMKTGDEDVEKSLFDPHTRFEQGDKELHGREMIEHLLRLLRERFPNVQIRRMEIQHWDHFNGVLIEFGELRVDVNGRTVSLRIIIYAEKINGQWHVKRVEFD”, the protease stability score is reported as 1.52.

In the case of “NEDEEKAKRFVKTYVHSLVTGDWKLWSEMADPNMILIYGDKTFIGREHFEEFFRRHIEELRFDSFHVDHVEIQGDKAELESRVSVIINGVERELETNMFLHKVDGRWLLTKFEVH”, the protease stability score is reported as 2.08.

“NEDEEMIKTAIELLLRTWKTGDEHSLTELLDPHVRVHINGVDLHGRHAIHWLSRHMRFEEIRVDHFEIVNGRVHLETKVRIHYGDKSDTVESHVISLKVDGKWKTQRVQYH” gave a protease stability score of 0.954.

Work on “NEDEENMKKLLEDFLESLLTGDFDKLTRLADPHARIVQGDKELHGRDEIHEFWKRTMEHIRITHSYVREIDIINGRLHTDIHWDLQVGDKRYSHRVELILLKIDGKWVLHEVEFR” yielded a protease stability score of 1.27.

For “NEDEESAERAVHLLRELIYTGDEDRMLKYADPNVKIVFNGVEMHGMDTFLRVFHRIKNLTIRRIHIDHIHLQGDKIELNVRMDTEFNGRHHDDSIHIRTLKVDGVWINHRTEYV”, the protease stability score was 1.04.

In the case of “NEDEESIRRAVEHWSKLILTGDESLLRQMADPNVRIQVGDKRIIGMDSLVKLMEDLGWEMEIRTKIRHTEIINGKMHTRTQLDIHFRQGDKKVDIHRDTEIVIEKVDGRWHIHSIRIE”, the protease stability score is reported as 0.752.

With “NEDEEVERKWLEFIRHALHTGDERILHELLDPHAQLIYGDKHIIGREEMTRQFIELGVDHMEDKRVHHQGDKIHQDGTEHVNGKERKVRFVVAKVNGRWIWERMHVI” the protease stability score was 1.03.

With “NEDEEWIHKFWETLRKNIETGNEEEIEKLFDPNTRVEIGDKIIHGRRFIEHLKERADHVEEVHFQHKHIEIQGDKVQVHGELDHDIRIGDKRHRLRLDIIIILKKYNGRWHVHSFIIT” the protease stability score was 1.2.

Sequence “NEDEEYVRLAHEILVETLRTGDEHITKRLADPHVRIDVGDKELHGWEDWLELLTHEARHLRTEIRVRNFDSQGDFIRVEVIIIIVVNGKRIEREVHYFSLKVDGRWLLTHVEIK” has a protease stability score of 0.242.

In the case of “NEDEHRARFIFRILTKAILTGDEDFLHRFADPNVRIHVNGVNLIGMEEWLRHLKELRIHFITSHVREIDKIDGVMIVHGEFVIDGEVNGKRDTWHTEIHLVITKVNGRWILHELHTR”, the protease stability score is reported as 2.58.

Work on “NEDEKILEEAARLLFKALHTGDETTMLRLLDPNVRLHINGRDLIGREEMDRWWQELGLERISVHLDHLETHYIGNKIEIYIRGTVEFNGVRREIDVHNHALKVNGRWELKNVEIRHR” yielded a protease stability score of 0.893.
